This data set concerns the molecule itself. Put plainly: SEC; size-exclusion chromatography of recombinant senataxin (1–600) after cleavage from GST.

The results in this text go back to paper PMC3823977, “Protein Interaction Analysis of Senataxin and the ALS4 L389S Mutant Yields Insights into Senataxin Post-Translational Modification and Uncovers Mutant-Specific Binding with a Brain Cytoplasmic RNA-Encoded Peptide” (PLoS ONE, 2013).

B1: recombinant amino-terminal senataxin (1–600), GST cleaved (domain or fragment, human, UniProt Q7Z333-1 1-600, looked up)
chain: MSTCCWCTPGGASTIDFLKRYASNTPSGEFQTADEDLCYCLECVAEYHKARDELPFLHEVLWELETLRLINHFEKSMKAEIGDDDELYIVDNNGEMPLFDITGQDFENKLRVPLLEILKYPYLLLHERVNELCVEALCRMEQANCSFQVFDKHPGIYLFLVHPNEMVRRWAILTARNLGKVDRDDYYDLQEVLLCLFKVIELGLLESPDIYTSSVLEKGKLILLPSHMYDTTNYKSYWLGICMLLTILEEQAMDSLLLGSDKQNDFMQSILHTMEREADDDSVDPFWPALHCFMVILDRLGSKVWGQLMDPIVAFQTIINNASYNREIRHIRNSSVRTKLEPESYLDDMVTCSQIVYNYNPEKTKKDSGWRTAICPDYCPNMYEEMETLASVLQSDIGQDMRVHNSTFLWFIPFVQSLMDLKDLGVAYIAQVVNHLYSEVKEVLNQTDAVCDKVTEFFLLILVSVIELHRNKKCLHLLWVSSQQWVEAVVKCAKLPTTAFTRSSEKSSGNCSKGTAMISSLSLHSMPSNSVQLAYVQLIRSLLKEGYQLGQQSLCKRFWDKLNLFLRGNLSLGWQLTSQETHELQSCLKQIIRNIKFKAP
notes: vector pGEX-4T-2; also called purified senataxin peptide; source: E. coli, GST-tagged, purified after in vitro cleavage
For the protein B1, the “stoichiometry N” value worked out at 2.
